Measurements from US20120064176A1, “COMPOSITION FOR PREVENTING AND TREATING FATTY LIVER” (National Chung Hsing University, priority 2008, published 2012).

Test system: C57BL/6JNarl mice
Test: Hepatic triglycerides after 7 weeks of lactoferrin, chromium or lactoferrin+chromium in high-fat-diet mice
Type: in vivo
Settings: 10 mice in each group
Description: Male C57BL/6JNarl mice (n=70) fed with high fat diet (high-fat Rodent TestDiet, PMI International Inc., MO, USA; 67% of calories provided by fat), age 8 weeks, are randomly divided into the control group, the low-dose lactoferrin group (NZMP lactoferrin, New Zealand, 40 mg/kg BW/day), the high-dose lactoferrin group (80 mg/kg BW/day), the low-dose chromium group (CrCl3·6H2O, Sigma, Cr^+3 40 μg/kg BW/day), the high dose chromium group (Cr^+3 80 μg/kg BW/day), the low-dose lactoferrin+chromium group (lactoferrin 40 mg/kg BW/day+Cr^+3 40 μg/kg BW/day), and the high-dose lactoferrin+chromium group (lactoferrin 80 mg/kg BW/day+Cr^+3 80 μg/kg BW/day) (10 mice in each group). After supplementation for 7 weeks, the C57BL/6JNarl mice are sacrificed and their livers are harvested. Then, the level of hepatic triglycerides is analyzed. […] However, no significant difference between the other groups is found.

B1: Lactoferrin: NZMP lactoferrin, New Zealand; a glycoprotein that is capable of combining with metal ions (protein, UniProt P24627 20-708, looked up)
Lactotransferrin: APRKNVRWCTISQPEWFKCRRWQWRMKKLGAPSITCVRRAFALECIRAIAEKKADAVTLDGGMVFEAGRDPYKLRPVAAEIYGTKESPQTHYYAVAVVKKGSNFQLDQLQGRKSCHTGLGRSAGWIIPMGILRPYLSWTESLEPLQGAVAKFFSASCVPCIDRQAYPNLCQLCKGEGENQCACSSREPYFGYSGAFKCLQDGAGDVAFVKETTVFENLPEKADRDQYELLCLNNSRAPVDAFKECHLAQVPSHAVVARSVDGKEDLIWKLLSKAQEKFGKNKSRSFQLFGSPPGQRDLLFKDSALGFLRIPSKVDSALYLGSRYLTTLKNLRETAEEVKARYTRVVWCAVGPEEQKKCQQWSQQSGQNVTCATASTTDDCIVLVLKGEADALNLDGGYIYTAGKCGLVPVLAENRKSSKHSSLDCVLRPTEGYLAVAVVKKANEGLTWNSLKDKKSCHTAVDRTAGWNIPMGLIVNQTGSCAFDEFFSQSCAPGADPKSRLCALCAGDDQGLDKCVPNSKEKYYGYTGAFRCLAEDVGDVAFVKNDTVWENTNGESTADWAKNLNREDFRLLCLDGTRKPVTEAQSCHLAVAPNHAVVSRSDRAAHVKQVLLHQQALFGKNGKNCPDKFCLFKSETKNLLFNDNTECLAKLGGRPTYEEYLGTEYVTAIANLKKCSTSPLLEACAFLTR
Hepatic triglycerides, High-dose (High-dose: lactoferrin 80 mg/kg BW/day and/or Cr+3 80 μg/kg BW/day): 18.1 ± 7.2 μ mol/g liver
Hepatic triglycerides, Low-dose (Low-dose: lactoferrin 40 mg/kg BW/day and/or Cr+3 40 μg/kg BW/day): 18.4 ± 6.0 μ mol/g liver
